{
  "source": "patent WO2007059715A2",
  "about": "(dated 2007)",
  "binders": {"B1": {"name": "monoclonal antibody 4G2 (antibody, V domains shown)", "VH": "EVQLQQSGPELVKPGTSVKISCKTSGYTFTEYTIHWVKQSHGKSLAWIGGIDPNSGGTNYSPNFKGKATLTVDKSSSTAYMDLRSLSSEDSAVYFCARIYHYDGYFDVWGAGTAVTVSS", "VL": "NIVMTQSPKSMSMSVGERVTLTCKASENVVTYVSWYQQKPEQSPKLLIYGASNRYTGVPDRFTGSGSATDFTLTISSVQAEDLADYHCGQGYSYPYTFGGGTKLEIK", "notes": "also called AcM 4G2; Mab 4G2"}},
  "molecular_target": "chimeric protein PMEC1-His6 (dengue 2 virus, strain 1409, genotype …)",
  "experiment": "dot blot, 10 μg protein spotted, antibody 10 μg/ml",
  "data": [
    {"binder": "B1", "values": [
      {"measurement": "binding result", "value": "binds"}
    ]}
  ]
}
